Assay results published in patent publication US6623738 (University of California, dated 2003).

B1: Sema IV-AP fusion protein (human Sema IV fused to alkaline phosphatase) (ligand, UniProt Q13275 19-785, looked up)
chain: SFPTQDHLPATPRVRLSFKELKATGTAHFFNFLLNTTDYRILLKDEDHDRMYVGSKDYVLSLDLHDINREPLIIHWAASPQRIEECVLSGKDVNGECGNFVRLIQPWNRTHLYVCGTGAYNPMCTYVNRGRRAQATPWTQTQAVRGRGSRATDGALRPMPTAPRQDYIFYLEPERLESGKGKCPYDPKLDTASALINEELYAGVYIDFMGTDAAIFRTLGKQTAMRTDQYNSRWLNDPSFIHAELIPDSAERNDDKLYFFFRERSAEAPQSPAVYARIGRICLNDDGGHCCLVNKWSTFLKARLVCSVPGEDGIETHFDELQDVFVQQTQDVRNPVIYAVFTSSGSVFRGSAVCVYSMADIRMVFNGPFAHKEGPNYQWMPFSGKMPYPRPGTCPGGTFTPSMKSTKDYPDEVINFMRSHPLMYQAVYPLQRRPLVVRTGAPYRLTTIAVDQVDAADGRYEVLFLGTDRGTVQKVIVLPKDDQELEELMLEEVEVFKDPAPVKTMTISSKRQQLYVASAVGVTHLSLHRCQAYGAACADCCLARDPYCAWDGQACSRYTASSKRRSRRQDVRHGNPIRQCRGFNSNANKNAVESVQYGVAGSAAFLECQPRSPQATVKWLFQRDPGDRRREIRAEDRFLRTEQGLLLRALQLSDRGLYSCTATENNFKHVVTRVQLHVLGRDAVHAALFPPLSMSAPPPPGAGPPTPPYQELAQLLAQPEVGLIHQYCQGYWRHVPPSPREAPGAPRSPEPQDQKKPRNRRHHPPDT
notes: written as in the name; Partially purified conditioned medium; also called Sema IV/Sema 3F; not shown: secreted alkaline phosphatase in pSecTag-A
B2: AP fusion with Drosophila D-Sema II (ligand, UniProt Q24323 26-724, looked up)
chain: DYENTWNFYYERPCCTGNDQGNNNYGKHGADHVREFNCGKLYYRTFHMNEDRDTLYVGAMDRVFRVNLQNISSSNCNRDVINLEPTRDDVVSCVSKGKSQIFDCKNHVRVIQSMDQGDRLYVCGTNAHNPKDYVIYANLTHLPRSEYVIGVGLGIAKCPYDPLDNSTAIYVENGNPGGLPGLYSGTNAEFTKADTVIFRTDLYNTSAKRLEYKFKRTLKYDSKWLDKPNFVGSFDIGEYVYFFFRETAVEYINCGKAVYSRIARVCKKDVGGKNLLAHNWATYLKARLNCSISGEFPFYFNEIQSVYQLPSDKSRFFATFTTSTNGLIGSAVCSFHINEIQAAFNGKFKEQSSSNSAWLPVLNSRVPEPRPGTCVNDTSNLPDTVLNFIRSHPLMDKAVNHEHNNPVYYKRDLVFTKLVVDKIRIDILNQEYIVYYVGTNLGRIYKIVQYYRNGESLSKLLDIFEVAPNEAIQVMEISQTRKSLYIGTDHRIKQIDLAMCNRRYDNCFRCVRDPYCGWDKEANTCRPYELDLLQDVANETSDICDSSVLKKKIVVTYGQSVHLGCFVKIPEVLKNEQVTWYHHSKDKGRYEIRYSPTKYIETTERGLVVVSVNEADGGRYDCHLGGSLLCSYNITVDAHRCTPPNKSNDYQKIYSDWCHEFEKYKTAMKSWEKKQAQCSTRQNFSSNQHPNEIFRKPNV
notes: also called Drosophila Sema II; not shown: alkaline phosphatase (AP) reporter
B3: Sema E-AP fusion protein (mouse Sema E fused to alkaline phosphatase) (ligand, UniProt Q62181 21-751, looked up)
chain: GSSQPQARVYLTFDELRETKTSEYFSLSHQQLDYRILLMDEDQDRIYVGSKDHILSLNINNISQEPLSVFWPASTIKVEECKMAGKDPTHGCGNFVRVIQTFNRTHLYVCGSGAFSPVCTYLNRGRRSEDQVFMIDSKCESGKGRCSFNPNVNTVSVMINEELFSGMYIDFMGTDAAIFRSLTKRNAVRTDQHNSKWLSEPMFVDAHVIPDGTDPNDAKVYFFFKERLTDNNRSTKQIHSMIARICPNDTGGQRSLVNKWTTFLKARLVCSVTDEDGPETHFDELEDVFLLETDNPRTTLVYGIFTTSSSVFKGSAVCVYHLSDIQTVFNGPFAHKEGPNHQLISYQGRIPYPRPGTCPGGAFTPNMRTTKDFPDDVVTFIRNHPLMYNSIYPIHRRPLIVRIGTDYKYTKIAVDRVNAADGRYHVLFLGTDRGTVQKVVVLPTNSSASGELILEELEVFKNHVPITTMKISSKKQQLYVSSNEGVSQVSLHRCHIYGTACADCCLARDPYCAWDGHSCSRFYPTGKRRSRRQDVRHGNPLTQCRGFNLKAYRNAAEIVQYGVRNNSTFLECAPKSPQASIKWLLQKDKDRRKEVKLNERIIATSQGLLIRSVQDSDQGLYHCIATENSFKQTIAKINFKVLDSEMVAVVTDKWSPWTWAGSVRALPFHPKDILGAFSHSEMQLINQYCKDTRQQQQLGEEPQKMRGDYGKLKALINSRKSRNRRNQLPES
notes: written as in the name; Partially purified conditioned medium; not shown: secreted alkaline phosphatase of vector APtag-4

Experiments:
[1] = target: T1, neuropilin-1 transiently expressed in COS-7 cells (Rattus norvegicus (Rat), UniProt Q9QWJ9 22-922); assay: equilibrium binding of AP fusion to transfected COS cells, Hill fit
T1 construct: also called npn-1; SR1
Experimental: (§1) FIGS. 5A–5C. Equilibrium binding of semaphorin-AP fusion proteins to neuropilin-expressing cells. Transfected or control COS cells were incubated with concentrated media containing the indicated concentrations of semaphorin-AP fusion proteins. AP activity derived from bound fusion proteins was measured […] at 405 nm; specific binding was obtained after subtraction of background from control cells. Specific binding curves to cells expressing neuropilin-1 (closed circles) or […] are shown for Sema III-AP (A), Sema E-AP (B), and Sema IV-AP (C). Dissociation constants for interaction with neuropilin-2-expressing cells were 0.29 for Sema E-AP and 0.09 nM for Sema IV-AP.
(§2) We estimated the binding affinity of the AP fusions of Sema III, Sema E and Sema IV to cells expressing neuropilin-1 or neuropilin-2 in equilibrium binding experiments. For these experiments, we used the a5 isoform of neuropilin-2. […] Those for Sema IV binding to neuropilin-1 and neuropilin-2 were 30 nM and 5 nM, respectively. […] Similar Kd values were obtained using the b5 isoform of neuropilin-2 and the degree of binding of different semaphorins to cells all isoforms tested appeared similar.

[2] = target: T2, mouse neuropilin-2(a5), myc-tagged, expressed in COS-7 cells (mouse, UniProt O35375 21-931); assay: equilibrium binding of AP fusion to transfected COS cells (a5 isoform), Hill fit
T2 construct: also called a5 isoform of neuropilin-2; SR2(a)5
T2 sequence: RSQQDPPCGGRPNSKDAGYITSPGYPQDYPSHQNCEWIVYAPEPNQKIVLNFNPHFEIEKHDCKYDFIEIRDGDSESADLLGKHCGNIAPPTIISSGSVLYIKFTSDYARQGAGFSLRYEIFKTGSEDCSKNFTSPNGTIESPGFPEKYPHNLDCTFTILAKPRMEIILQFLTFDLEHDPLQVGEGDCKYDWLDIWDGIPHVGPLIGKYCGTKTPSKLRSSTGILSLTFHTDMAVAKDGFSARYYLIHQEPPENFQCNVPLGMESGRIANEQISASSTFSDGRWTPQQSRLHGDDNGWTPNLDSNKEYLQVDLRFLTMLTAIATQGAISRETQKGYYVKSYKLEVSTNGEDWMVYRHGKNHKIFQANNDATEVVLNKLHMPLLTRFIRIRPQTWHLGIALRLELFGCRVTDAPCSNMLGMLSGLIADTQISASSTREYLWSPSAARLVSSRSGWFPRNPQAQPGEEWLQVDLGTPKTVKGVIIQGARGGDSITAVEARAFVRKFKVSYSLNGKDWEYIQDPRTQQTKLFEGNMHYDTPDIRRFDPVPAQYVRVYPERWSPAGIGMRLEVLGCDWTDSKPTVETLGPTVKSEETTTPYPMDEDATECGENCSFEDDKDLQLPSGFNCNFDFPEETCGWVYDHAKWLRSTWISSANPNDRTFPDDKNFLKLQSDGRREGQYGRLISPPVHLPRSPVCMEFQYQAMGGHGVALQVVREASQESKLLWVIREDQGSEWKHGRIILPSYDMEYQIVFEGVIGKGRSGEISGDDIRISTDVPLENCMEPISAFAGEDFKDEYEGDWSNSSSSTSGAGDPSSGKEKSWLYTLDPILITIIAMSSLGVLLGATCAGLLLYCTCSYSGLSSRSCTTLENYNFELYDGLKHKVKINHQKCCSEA
Experimental: as §1, §2

[3] = target: T2, mouse neuropilin-2(a5), myc-tagged, …; assay: equilibrium binding of AP fusion to neuropilin-2-expressing COS cells (figure legend)
Experimental: as §1, §2

[4] = target: T3, mouse neuropilin-2(a0), myc-tagged, expressed in COS-7 cells (mouse, UniProt O35375 21-931); assay: AP fusion binding to transfected COS cells
T3 construct: also called SR2(a)0; m-npn-2
T3 sequence: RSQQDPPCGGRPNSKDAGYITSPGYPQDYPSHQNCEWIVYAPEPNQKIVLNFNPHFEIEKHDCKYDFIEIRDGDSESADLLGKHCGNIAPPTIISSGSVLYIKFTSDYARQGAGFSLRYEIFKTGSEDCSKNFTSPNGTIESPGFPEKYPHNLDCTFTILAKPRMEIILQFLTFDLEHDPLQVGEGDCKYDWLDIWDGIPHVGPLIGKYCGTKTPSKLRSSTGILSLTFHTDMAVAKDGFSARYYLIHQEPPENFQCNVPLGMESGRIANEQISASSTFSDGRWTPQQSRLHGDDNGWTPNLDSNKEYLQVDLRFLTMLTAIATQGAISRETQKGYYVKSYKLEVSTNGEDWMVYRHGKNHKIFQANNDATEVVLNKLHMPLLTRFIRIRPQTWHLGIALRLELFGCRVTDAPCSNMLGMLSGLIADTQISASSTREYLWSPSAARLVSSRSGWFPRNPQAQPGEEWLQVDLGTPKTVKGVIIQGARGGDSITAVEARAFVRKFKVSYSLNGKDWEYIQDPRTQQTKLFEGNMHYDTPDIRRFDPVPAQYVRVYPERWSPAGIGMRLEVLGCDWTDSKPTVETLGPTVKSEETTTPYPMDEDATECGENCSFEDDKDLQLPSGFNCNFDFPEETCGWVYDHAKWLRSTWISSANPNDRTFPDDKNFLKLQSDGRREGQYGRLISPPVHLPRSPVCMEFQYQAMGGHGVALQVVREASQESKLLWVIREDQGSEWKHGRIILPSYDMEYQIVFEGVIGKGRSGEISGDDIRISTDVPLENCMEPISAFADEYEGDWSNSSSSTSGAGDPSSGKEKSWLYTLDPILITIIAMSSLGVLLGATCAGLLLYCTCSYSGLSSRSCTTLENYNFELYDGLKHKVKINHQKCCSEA

[5] = target: T2, mouse neuropilin-2(a5), myc-tagged, …; assay: AP fusion binding to transfected COS cells
[6] = target: T4, mouse neuropilin-2(a22), myc-tagged, expressed in COS-7 cells (mouse, UniProt O35375 21-931); assay: AP fusion binding to transfected COS cells
T4 construct: also called SR2(a)22
T4 sequence: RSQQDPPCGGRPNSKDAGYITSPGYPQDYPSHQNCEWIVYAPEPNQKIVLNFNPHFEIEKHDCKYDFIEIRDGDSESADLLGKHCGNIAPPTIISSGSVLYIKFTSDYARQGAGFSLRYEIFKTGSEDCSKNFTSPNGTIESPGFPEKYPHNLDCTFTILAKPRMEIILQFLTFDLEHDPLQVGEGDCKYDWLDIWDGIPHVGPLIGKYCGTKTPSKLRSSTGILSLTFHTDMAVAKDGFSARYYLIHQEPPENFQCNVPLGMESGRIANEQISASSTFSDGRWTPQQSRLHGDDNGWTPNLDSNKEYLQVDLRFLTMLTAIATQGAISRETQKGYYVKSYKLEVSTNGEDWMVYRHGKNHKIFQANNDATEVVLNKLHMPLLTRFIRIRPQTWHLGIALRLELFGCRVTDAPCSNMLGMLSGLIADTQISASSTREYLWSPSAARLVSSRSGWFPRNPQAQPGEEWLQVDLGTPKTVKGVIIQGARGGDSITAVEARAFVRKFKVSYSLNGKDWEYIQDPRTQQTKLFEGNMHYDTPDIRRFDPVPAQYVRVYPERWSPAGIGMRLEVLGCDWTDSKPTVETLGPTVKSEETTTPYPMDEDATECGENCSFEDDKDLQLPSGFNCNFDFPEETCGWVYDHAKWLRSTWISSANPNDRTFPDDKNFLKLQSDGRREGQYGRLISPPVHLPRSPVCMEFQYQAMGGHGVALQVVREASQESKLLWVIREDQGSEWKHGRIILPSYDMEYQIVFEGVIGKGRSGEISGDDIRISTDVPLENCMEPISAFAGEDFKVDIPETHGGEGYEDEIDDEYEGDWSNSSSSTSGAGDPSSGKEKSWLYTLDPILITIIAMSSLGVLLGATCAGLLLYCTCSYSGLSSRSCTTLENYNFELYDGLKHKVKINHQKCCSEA

Binder	Kd [1] [nM]	Kd [2] [nM]	Kd [3] [nM]	binding result [4]	binding result [5]	binding result [6]
B1	30	5	0.09			
B2				no binding	no binding	no binding
B3	5	18	0.29			
